Test results from article PMC9482650, “Quantitative fragmentomics allow affinity mapping of interactomes” (Nature Communications, 2022).

What was measured:
Experiment in all cases: holdup assay
Design in all cases: key: below the threshold = too weak to quantify, mostly under pKd 3.1 to 4
PDZD2_2, O15018 = target: T1, PDZD2_2, O15018
T1 sequence (O15018 329-429, limits assumed, looked up): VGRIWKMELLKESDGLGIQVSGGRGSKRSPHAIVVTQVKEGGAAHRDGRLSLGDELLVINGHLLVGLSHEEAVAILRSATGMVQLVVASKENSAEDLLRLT

Inadl_10, Q8NI35 = conditions: plain residues with an end cap or a label only (N-terminal biotin on a linker: ttds)
LIN7A, O14910 = target: T2, LIN7A, O14910
T2 sequence (O14910 103-200, limits assumed, looked up): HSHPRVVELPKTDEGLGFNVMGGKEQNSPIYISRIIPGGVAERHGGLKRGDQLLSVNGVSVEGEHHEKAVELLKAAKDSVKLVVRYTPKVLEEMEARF

FRMPD2_1, Q68DX3 = target: FRMPD2_1, Q68DX3
APBA1_1, Q02410 = target: T3, APBA1_1, Q02410; conditions: plain residues with an end cap or a label only (N-terminal biotin on a linker: ttds)
T3 sequence (Q02410 651-752, limits assumed, looked up): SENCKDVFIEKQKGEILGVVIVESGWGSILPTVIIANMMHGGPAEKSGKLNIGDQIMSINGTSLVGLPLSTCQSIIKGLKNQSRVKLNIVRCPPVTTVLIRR

DFNB31_3, Q9P202 = target: T4, DFNB31_3, Q9P202; conditions: plain residues with an end cap or a label only (N-terminal biotin on a linker: ttds)
T4 sequence (Q9P202 811-907, limits assumed, looked up): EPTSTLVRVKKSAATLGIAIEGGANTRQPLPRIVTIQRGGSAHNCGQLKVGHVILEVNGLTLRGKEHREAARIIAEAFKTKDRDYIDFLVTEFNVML

LIN7C, Q9NUP9 = target: T5, LIN7C, Q9NUP9
T5 sequence (Q9NUP9 88-185, limits assumed, looked up): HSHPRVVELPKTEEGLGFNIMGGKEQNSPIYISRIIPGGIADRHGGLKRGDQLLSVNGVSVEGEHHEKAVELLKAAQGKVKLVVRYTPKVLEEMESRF

GOPC, Q9HD26 = target: GOPC, Q9HD26
FRMPD2_2, Q68DX3 = target: FRMPD2_2, Q68DX3
GRIP2_5, Q9C0E4 = target: GRIP2_5, Q9C0E4
MPP2, Q14168 = target: T6, MPP2, Q14168; conditions: plain residues with an end cap or a label only (N-terminal biotin on a linker: ttds)
T6 sequence (Q14168 180-250, limits assumed, looked up): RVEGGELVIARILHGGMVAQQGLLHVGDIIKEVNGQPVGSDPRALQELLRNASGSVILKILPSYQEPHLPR

MAGI1_1, Q96QZ7 = conditions: plain residues with an end cap or a label only (N-terminal biotin on a linker: ttds)
GRIP1_2, Q9Y3R0 = target: T7, GRIP1_2, Q9Y3R0; conditions: plain residues with an end cap or a label only (N-terminal biotin on a linker: ttds)
T7 sequence (Q9Y3R0 145-248, limits assumed, looked up): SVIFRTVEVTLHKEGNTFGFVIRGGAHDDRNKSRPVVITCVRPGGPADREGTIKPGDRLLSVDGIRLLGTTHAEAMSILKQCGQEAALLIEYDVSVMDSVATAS

NHERF3_3, Q5T2W1 = target: T8, NHERF3_3, Q5T2W1; conditions: plain residues with an end cap or a label only (N-terminal biotin on a linker: ttds)
T8 sequence (Q5T2W1 238-333, limits assumed, looked up): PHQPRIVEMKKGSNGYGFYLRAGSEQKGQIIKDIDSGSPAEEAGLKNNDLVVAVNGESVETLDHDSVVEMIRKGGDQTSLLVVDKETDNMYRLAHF

Inadl_9, Q8NI35 = conditions: plain residues with an end cap or a label only (N-terminal biotin on a linker: ttds)
FRMPD1, Q5SYB0 = target: T9, FRMPD1, Q5SYB0
T9 sequence (Q5SYB0 52-145, limits assumed, looked up): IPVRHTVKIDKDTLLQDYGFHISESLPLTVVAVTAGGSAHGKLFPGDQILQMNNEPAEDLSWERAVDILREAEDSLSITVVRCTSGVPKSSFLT

MPP6, Q9NZW5 = target: T10, MPP6, Q9NZW5; conditions: plain residues with an end cap or a label only (N-terminal biotin on a linker: ttds)
T10 sequence (Q9NZW5 125-219, limits assumed, looked up): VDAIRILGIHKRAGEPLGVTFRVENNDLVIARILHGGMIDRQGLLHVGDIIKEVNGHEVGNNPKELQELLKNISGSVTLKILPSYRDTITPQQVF

DLG4_2, P78352 = target: DLG4_2, P78352
PDLIM1, O00151 = target: PDLIM1, O00151
FRMPD4, Q14CM0 = conditions: plain residues with an end cap or a label only (N-terminal biotin on a linker: ttds)
CARD11, Q9BXL7 = target: T11, CARD11, Q9BXL7; conditions: plain residues with an end cap or a label only (N-terminal biotin on a linker: ttds)
T11 sequence (Q9BXL7 662-765, limits assumed, looked up): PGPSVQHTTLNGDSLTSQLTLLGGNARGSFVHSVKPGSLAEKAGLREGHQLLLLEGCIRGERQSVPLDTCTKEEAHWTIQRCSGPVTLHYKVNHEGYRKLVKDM

LNX1_2, Q8TBB1 = conditions: plain residues with an end cap or a label only (N-terminal biotin on a linker: ttds)
GRIP1_3, Q9Y3R0 = target: T12, GRIP1_3, Q9Y3R0; conditions: plain residues with an end cap or a label only (N-terminal biotin on a linker: ttds)
T12 sequence (Q9Y3R0 247-346, limits assumed, looked up): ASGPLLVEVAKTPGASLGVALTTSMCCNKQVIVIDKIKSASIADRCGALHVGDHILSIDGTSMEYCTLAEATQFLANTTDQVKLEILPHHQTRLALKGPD

GRIP2_6, Q9C0E4 = target: GRIP2_6, Q9C0E4
MAGI2_3, Q86UL8 = target: MAGI2_3, Q86UL8
PARD3_3, Q8TEW0 = target: PARD3_3, Q8TEW0
[1] = plain residues with an end cap or a label only (N-terminal biotin on a linker: ttds)
[2] = plain residues with an end cap or a label only (N-terminal biotin on a linker: ado-ado)

MAGI1_1, Q96QZ7, sequence (Q96QZ7 1-106): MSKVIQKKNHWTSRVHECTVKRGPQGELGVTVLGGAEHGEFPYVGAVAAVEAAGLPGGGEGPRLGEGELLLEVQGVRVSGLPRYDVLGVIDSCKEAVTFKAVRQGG
Inadl_9, Q8NI35, sequence (Q8NI35 1530-1615): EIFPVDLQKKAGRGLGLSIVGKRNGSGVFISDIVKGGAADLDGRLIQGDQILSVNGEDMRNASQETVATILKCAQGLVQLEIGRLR
PDLIM1, O00151, sequence (O00151 1-87): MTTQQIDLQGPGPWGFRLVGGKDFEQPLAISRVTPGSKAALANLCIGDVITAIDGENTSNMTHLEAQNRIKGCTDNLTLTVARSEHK
MAGI2_3, Q86UL8, sequence (Q86UL8 600-682): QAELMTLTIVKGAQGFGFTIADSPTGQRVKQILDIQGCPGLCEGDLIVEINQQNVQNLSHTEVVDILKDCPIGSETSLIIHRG
DLG4_2, P78352, sequence (P78352 155-259): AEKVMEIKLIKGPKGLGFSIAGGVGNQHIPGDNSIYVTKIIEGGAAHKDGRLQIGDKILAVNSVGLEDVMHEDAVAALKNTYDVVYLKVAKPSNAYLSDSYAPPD
PARD3_3, Q8TEW0, sequence (Q8TEW0 582-685): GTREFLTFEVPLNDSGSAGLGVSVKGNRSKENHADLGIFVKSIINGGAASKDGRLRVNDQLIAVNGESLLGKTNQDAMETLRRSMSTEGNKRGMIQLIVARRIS
Inadl_10, Q8NI35, sequence (Q8NI35 1673-1763): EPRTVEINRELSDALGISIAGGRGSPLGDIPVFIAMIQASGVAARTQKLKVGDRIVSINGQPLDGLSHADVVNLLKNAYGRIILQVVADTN
GRIP2_5, Q9C0E4, sequence (Q9C0E4 544-642): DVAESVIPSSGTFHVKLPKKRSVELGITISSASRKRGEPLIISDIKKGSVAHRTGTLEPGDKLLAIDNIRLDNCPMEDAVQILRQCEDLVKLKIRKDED
LNX1_2, Q8TBB1, sequence (Q8TBB1 371-470): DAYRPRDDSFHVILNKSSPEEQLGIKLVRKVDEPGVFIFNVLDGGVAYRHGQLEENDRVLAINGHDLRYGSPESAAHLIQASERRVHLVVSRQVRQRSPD
FRMPD2_1, Q68DX3, sequence (Q68DX3 770-861): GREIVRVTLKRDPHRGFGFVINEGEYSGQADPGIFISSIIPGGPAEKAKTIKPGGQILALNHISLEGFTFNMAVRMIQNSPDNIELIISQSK
FRMPD2_2, Q68DX3, sequence (Q68DX3 944-1038): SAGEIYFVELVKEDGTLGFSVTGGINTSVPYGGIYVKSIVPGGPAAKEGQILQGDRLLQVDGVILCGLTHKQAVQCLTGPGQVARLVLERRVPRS
FRMPD4, Q14CM0, sequence (Q14CM0 67-160): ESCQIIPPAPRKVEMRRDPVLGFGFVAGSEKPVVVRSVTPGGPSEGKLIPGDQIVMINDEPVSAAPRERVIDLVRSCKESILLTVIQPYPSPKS
GRIP2_6, Q9C0E4, sequence (Q9C0E4 648-740): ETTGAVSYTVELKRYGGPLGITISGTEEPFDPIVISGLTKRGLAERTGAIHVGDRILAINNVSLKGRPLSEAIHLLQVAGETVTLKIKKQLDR

Row | Binder | pKd (PDZD2_2, O15018; [1]) | pKd (Inadl_10, Q8NI35) | pKd (LIN7A, O14910; [1]) | pKd (FRMPD2_1, Q68DX3; [1]) | pKd (APBA1_1, Q02410) | pKd (DFNB31_3, Q9P202) | pKd (LIN7C, Q9NUP9; [1]) | pKd (FRMPD2_2, Q68DX3; [1]) | pKd (GRIP2_5, Q9C0E4; [1]) | pKd (MPP2, Q14168) | pKd (MAGI1_1, Q96QZ7) | pKd (GRIP1_2, Q9Y3R0) | pKd (NHERF3_3, Q5T2W1) | pKd (Inadl_9, Q8NI35) | pKd (FRMPD1, Q5SYB0; [1]) | pKd (MPP6, Q9NZW5) | pKd (DLG4_2, P78352; [1]) | pKd (FRMPD4, Q14CM0) | pKd (CARD11, Q9BXL7) | pKd (LNX1_2, Q8TBB1) | further results
1 | SVWLRKETRV [CYSLTR2, Q9NS75] | 3.8 | below the threshold | 4.17 | 4.15 | below the threshold | below the threshold | 5.03 | 3.6 | below the threshold | below the threshold | below the threshold | below the threshold | 3.52 | 3.39 | below the threshold | below the threshold | 5.38 | below the threshold | below the threshold | 3.4 | pKd (GOPC, Q9HD26; [1]): 4.27; pKd (PDLIM1, O00151; [1]): below the threshold; pKd (GRIP1_3, Q9Y3R0): below the threshold; pKd (GRIP2_6, Q9C0E4; [1]): below the threshold; pKd (MAGI2_3, Q86UL8; [1]): 4.73; pKd (PARD3_3, Q8TEW0; [1]): 3.46
2 | RSLEEEESQL [GRASP, Q7Z6J2] | 3.98 | below the threshold | 3.56 | below the threshold | below the threshold | 3.74 | 3.78 | below the threshold | below the threshold | below the threshold | below the threshold | below the threshold | below the threshold | below the threshold | 3.71 | 3.53 | 3.84 | 4.48 | 3.81 | 3.56 | pKd (GOPC, Q9HD26; [1]): 4.01; pKd (PDLIM1, O00151; [1]): 3.85; pKd (GRIP1_3, Q9Y3R0): below the threshold; pKd (GRIP2_6, Q9C0E4; [1]): 3.64; pKd (MAGI2_3, Q86UL8; [1]): 3.65; pKd (PARD3_3, Q8TEW0; [1]): 4.13
3 | SRPQRTQTQV [HPV67-E6, A4U7F2] | 3.77 | below the threshold | below the threshold | 3.79 | below the threshold | below the threshold | below the threshold | 3.53 | below the threshold | below the threshold | below the threshold | below the threshold | below the threshold | below the threshold | below the threshold | below the threshold | 4.96 | below the threshold | below the threshold | below the threshold | pKd (GOPC, Q9HD26; [1]): 3.58; pKd (PDLIM1, O00151; [1]): below the threshold; pKd (GRIP1_3, Q9Y3R0): below the threshold; pKd (GRIP2_6, Q9C0E4; [1]): below the threshold; pKd (MAGI2_3, Q86UL8; [1]): below the threshold; pKd (PARD3_3, Q8TEW0; [1]): below the threshold
4 | ERKLSSESQV [LRP4, O75096] | 4.39 | below the threshold | below the threshold | below the threshold | below the threshold | below the threshold | below the threshold | 3.48 | below the threshold | below the threshold | below the threshold | 3.7 | below the threshold | below the threshold | below the threshold | below the threshold | 4.69 | below the threshold | below the threshold | below the threshold | pKd (GOPC, Q9HD26; [1]): below the threshold; pKd (PDLIM1, O00151; [1]): below the threshold; pKd (GRIP1_3, Q9Y3R0): below the threshold; pKd (GRIP2_6, Q9C0E4; [1]): below the threshold; pKd (MAGI2_3, Q86UL8; [1]): below the threshold; pKd (PARD3_3, Q8TEW0; [1]): below the threshold
5 | SSRTRRETQL [HPV16-E6, P03126] | below the threshold | below the threshold | below the threshold | 4.12 | below the threshold | below the threshold | 4.04 | below the threshold | below the threshold | below the threshold | 3.5 | below the threshold | 3.72 | below the threshold | below the threshold | 3.58 | 4.66 | 3.83 | below the threshold | 3.47 | pKd (GRIP1_3, Q9Y3R0): below the threshold; pKd (GRIP2_6, Q9C0E4; [1]): below the threshold; pKd (MAGI2_3, Q86UL8; [1]): 3.67; pKd (PARD3_3, Q8TEW0; [1]): 3.65
6 | KSRVAFFEEL [NF2, P35240] |  |  |  |  |  |  |  |  |  |  |  |  |  |  |  |  |  |  |  |  | pKd (PDZD2_2, O15018; [2]): 3.71; pKd (LIN7A, O14910; [2]): 3.51; pKd (GOPC, Q9HD26; [2]): 3.63; pKd (GRIP2_5, Q9C0E4; [2]): 3.54; pKd (DLG4_2, P78352; [2]): 3.78; pKd (PDLIM1, O00151; [2]): 3.76; pKd (GRIP2_6, Q9C0E4; [2]): 3.77; pKd (MAGI2_3, Q86UL8; [2]): 3.55; pKd (PARD3_3, Q8TEW0; [2]): 3.72
7 | KRPEMTSSSV [MUC3B, MUC3A, Q02505;Q9H195] |  |  |  |  |  |  |  |  |  |  |  |  |  |  |  |  |  |  |  |  | pKd (PDZD2_2, O15018; [2]): 5.11; pKd (FRMPD2_1, Q68DX3; [2]): below the threshold; pKd (LIN7C, Q9NUP9; [2]): below the threshold; pKd (GOPC, Q9HD26; [2]): 3.96; pKd (FRMPD2_2, Q68DX3; [2]): below the threshold; pKd (FRMPD1, Q5SYB0; [2]): below the threshold; pKd (MAGI2_3, Q86UL8; [2]): below the threshold
